The target of experiment [1] is T1, human GAL-7 (Homo sapiens, UniProt P47929).
T1 construct: made in house; host or cells: E. coli BL21 (DE3), pET-22b(+)
Kind of experiment: inhibition of GAL-7-induced apoptosis of Jurkat T cells (annexin V/propidium iodide flow cytometry). Format: cell-based. The conditions noted are these: human GAL-7 10 μM, 4 h at 37° C. For orientation: In flow cytometry, cells or beads pass a laser one at a time.

The target in experiment [2] is T1, human GAL-7. Kind of experiment: microscale thermophoresis (MST) binding, human GAL-7. The conditions noted are these: at 10 μM; Red-NHS labeled G1N1 (2 nM). On the procedure:
(§1) FIGS. 9A-C show the binding affinities evaluated by microscale thermophoresis (MST) using various ligands over a range of 16 ligand concentrations allowing to obtain a full concentration-response curve. FIG. 9A: Red-NHS labeled human GAL-1 (5 nM) incubated with G1N1 or alpha-lactose (a-lactose). FIG. 9B: Red-NHS labeled G1N1 (2 nM) was used to study the affinity of G1N1 for mouse and human galectin-1. […] All experiments were performed in 20 mM Tris-HCl 150 mM NaCl and 0.1% F127. Binding affinities (Kd values) were determined from the fitted curves (three parameter dose-response curve) obtained from data of at least 3 independent experiments. For each value, 95% confidence intervals (Cl) are indicated.
(§2) Microscale thermophoresis (MST. Galectins were labeled using the RED-NHS labeling kit (Nanotemper Technologies, Germany) in accordance with the manufacturer's protocol. Unreacted dye was removed using the provided purification columns. Binding affinity assays were performed in 20 mM Tris-HCl, 150 mM NaCl and 0.1% F127. Samples were loaded into standard Monolith NT.115 capillaries and microscale thermophoresis was measured using a Monolith NT.115 Pico instrument (Nanotemper Technologies, Germany) at ambient temperature. Binding affinities (Kd values) were determined from the fitted curves (three parameter dose-response curve).
A general note: In MST a laser heats a spot of the sample, and binding alters the fluorescence response.

Another experiment has as its target T2, human GAL-8 (Homo sapiens, UniProt O00214).
T2 sequence (O00214 1-317): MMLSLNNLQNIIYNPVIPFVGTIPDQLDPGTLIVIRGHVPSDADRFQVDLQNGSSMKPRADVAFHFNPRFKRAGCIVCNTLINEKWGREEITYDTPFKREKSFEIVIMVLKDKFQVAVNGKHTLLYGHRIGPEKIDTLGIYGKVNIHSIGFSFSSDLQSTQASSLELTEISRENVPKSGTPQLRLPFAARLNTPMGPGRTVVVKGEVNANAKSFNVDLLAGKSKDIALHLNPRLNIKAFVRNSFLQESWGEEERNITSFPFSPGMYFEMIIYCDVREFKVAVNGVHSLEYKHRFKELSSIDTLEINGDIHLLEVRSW
Kind of experiment: microscale thermophoresis (MST) binding, human GAL-8. The conditions noted are these: at 10 μM; Red-NHS labeled G1N1 (2 nM). On the procedure:
as §1, §2

Another experiment has as its target T3, mouse GAL-7 (Mus musculus, UniProt O54974).
T3 sequence (O54974 1-136): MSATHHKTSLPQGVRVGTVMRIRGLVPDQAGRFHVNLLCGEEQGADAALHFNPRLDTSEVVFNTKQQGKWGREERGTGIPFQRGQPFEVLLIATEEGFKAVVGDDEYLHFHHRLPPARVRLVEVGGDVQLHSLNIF
The experiment can be described thus: microscale thermophoresis (MST) binding, mouse GAL-7. The settings on record: at 10 μM; Red-NHS labeled G1N1 (2 nM). On the procedure: as §1, §2

In a further experiment the target is T4, mouse galectin-1 (Mus musculus, UniProt P16045).
T4 construct: made in house; host or cells: E. coli BL21 (DE3), pET-22b(+)
The experiment can be described thus: microscale thermophoresis (MST) binding affinity, mouse galectin-1. The conditions noted are these: Red-NHS labeled G1N1 (2 nM); 20 mM Tris-HCl 150 mM NaCl 0.1% F127. On the procedure: as §1, §2

For experiment [3], the target named is T5, GAL-1-Biotin (biotinylated human GAL-1) (Homo sapiens, UniProt P09382).
T5 construct: made in house; host or cells: E. coli BL21 (DE3), pET-22b(+)
Kind of experiment: non-adsorbed phage ELISA of VHH clones on GAL-1-Biotin. The conditions noted are these: HRP-conjugated anti-M13 antibody, TMB substrate; 282 clones tested. It is filed as binding. On the procedure:
Generation and production of single chain camelid antibodies. Galectin-specific single chain (VHH) camelid antibodies were obtained following in vitro screening of a non-immune humanized synthetic single domain antibodies (hsd2Ab) library that contains more than 3×10^9 clones expressed at the surface of M13 phage [Moutel et al., 2016]. The panning was carried out against immobilized recombinant human galectin-1 devoid of carbohydrate in its glycan binding site (GBS). Prior to the phage display selection, galectin-1-biotin and GST-Biotin were bound to streptavidin magnetic beads (Dynabeads® M-280 Streptavidin, Life Technologies) with a 50 nM final concentration of biotinylated protein for the first round and 10 nM final concentration of biotinylated protein for the second and third rounds. […] Following three-rounds of phage display, clones were picked randomly and analyzed by non-adsorbed phage ELISA using HRP-conjugated anti-M13 antibody (GE Healthcare) and a colorimetric substrate (TMB, tetramethylbenzidine, Thermo Fischer).
Following an initial pre-screen round of phage display carried out with GST-biotin to deplete the library from unspecific binders, unbound VHHs were incubated with GAL-1-Biotin beads. […] A total of 282 VHHs were then picked and analyzed by ELISA for galectin-1 binders.

A further experiment concerns the target T6, human galectin-1 (Homo sapiens, UniProt P09382).
T6 construct: made in house; host or cells: E. coli BL21 (DE3), pET-22b(+)
The experiment can be described thus: microscale thermophoresis (MST) binding affinity, human galectin-1. On the procedure: as §1, §2

The target of experiment [4] is T7, recombinant human GAL-1 (rhGAL-1) (Homo sapiens, UniProt P09382).
T7 construct: made in house; host or cells: E. coli BL21 (DE3), pET-22b(+)
Kind of experiment: inhibition of galectin-1-induced apoptosis of Jurkat T cells (annexin V/propidium iodide flow cytometry). It is filed as cell-based. The settings on record: rhGAL-1 2.25 μM, 4 h at 37° C., increasing concentrations of nanobody. On the procedure: Briefly, Jurkat T cells were incubated with recombinant human GAL-1 (rhGAL-1; 2.25 μM) for 4h at 37° C. in presence of increasing concentrations of G1N1 and G1N2. Apoptosis was measured by flow cytometry using conventional annexin V/propidium iodide staining. Results represent data recorded on 5000 cells. Errors bars represent standard deviation.
Jurkat T cells were incubated with increasing concentrations of G1N1 pre-incubated with rhGAL-1 (2.25 μM) for 4 h at 37° C., after which apoptosis was measured by flow cytometry using Annexin V/propidium iodide staining. 5000 events were recorded. Errors bars represent standard deviation.
Apoptosis of human T cells. In vitro apoptosis assays were carried out using the standard in vitro human Jurkat T cell model system, fluorescein isothiocyanate (FITC)-labeled annexin V (Biolegend, San Diego, CA, USA) and propidium iodide (PI). Briefly, recombinant galectin-1 was pre-incubated for 1 h at 4° C. in serum free RPMI 1640 medium before addition to Jurkat cells. The mixture was incubated at 37° C. for 4 h. Cells were then washed once in PBS and once in binding buffer (0.01 M HEPES, 0.14 M NaCl, 2.5 mM CaCl2, pH 7.4). For staining, cells were incubated for 15 min with FITC-labeled annexin V in the dark at room temperature. The PI (0.25 μg/mL) stain was added to cells just before analysis by flow cytometry.

The subject of experiment [5] is human galectin-1 versus galectin-2, -7, -13 and -16. Kind of experiment: ELISA binding of G1N1 to immobilized recombinant human galectins. The settings on record: human galectins immobilized at 1 and 5 μM; increasing concentrations of G1N1. On the procedure:
Briefly, human galectins were immobilized at 1 and 5 μM for 16 h at 4° C. After a blocking step with PBS containing 10% (v/v) BSA (blocking buffer), increasing concentrations of G1N1 were added to each well and incubated for 1 h at room T° C. […] The colorimetric assay was carried out with 3,3′,5,5′-tetramethylbenzidine (Sigma-Aldrich, ON, Canada) according to the manufacturers recommendations.
ELISA assays. Recombinant human galectins were immobilized in 96-well plates at the indicated concentrations for 16 h at 4° C. After a blocking step with PBS containing 10% (v/v) bovine serum albumin (BSA) (blocking buffer), increasing concentrations of G1N1 were added to each well and incubated for 1 h at room temperature. […] The colorimetric assay was carried out with TMB (Sigma-Aldrich, MO, USA) according to the manufacturer's recommendations.

The target in a further experiment is T8, human GAL-13 (Homo sapiens, UniProt Q9UHV8).
T8 construct: made in house; host or cells: E. coli BL21 (DE3), pET-22b(+)
T8 sequence (Q9UHV8 1-139): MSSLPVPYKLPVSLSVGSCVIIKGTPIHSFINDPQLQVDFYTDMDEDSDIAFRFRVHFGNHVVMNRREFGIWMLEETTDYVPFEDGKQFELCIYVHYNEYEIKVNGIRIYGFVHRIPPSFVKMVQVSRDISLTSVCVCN
The experiment can be described thus: microscale thermophoresis (MST) binding, human GAL-13. The settings on record: at 10 μM; Red-NHS labeled G1N1 (2 nM). On the procedure: as §1, §2

Entries after “also recorded” stand apart in the source; their conditions may differ.

T1 sequence (P47929 whole entry): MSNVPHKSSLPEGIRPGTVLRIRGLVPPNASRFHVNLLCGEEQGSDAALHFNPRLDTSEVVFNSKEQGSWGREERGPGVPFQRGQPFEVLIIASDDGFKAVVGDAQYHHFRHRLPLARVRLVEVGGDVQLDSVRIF
T6 sequence (P09382 whole entry): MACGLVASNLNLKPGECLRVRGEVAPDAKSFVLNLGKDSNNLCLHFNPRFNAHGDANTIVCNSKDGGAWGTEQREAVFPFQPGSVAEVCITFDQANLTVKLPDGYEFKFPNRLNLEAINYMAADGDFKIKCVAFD
T5 sequence (P09382 whole entry): as above
T4 sequence (P16045 whole entry): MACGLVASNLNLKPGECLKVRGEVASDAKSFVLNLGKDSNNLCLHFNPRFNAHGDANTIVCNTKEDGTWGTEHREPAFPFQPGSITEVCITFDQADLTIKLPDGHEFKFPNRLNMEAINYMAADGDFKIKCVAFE
T7 sequence (P09382 whole entry): as the sequence (P09382 whole entry) above

B1: G1N1: galectin-1-specific single-domain camelid VHH nanobody, SEQ ID NO:8; lead clone from phage display of a humanized synthetic library (protein)
VHH: MAEVQLQASGGGFVQPGGSLRLSCAASGSTFSEDAMGWFRQAPGKEREFVSAISGFANPHSYYADSVKGRFTISRDNSKNTVYLQMNSLRAEDTATYYCAASHKKTRAPAATFETYWGQGTQVTVSS
modifications: full sequence of G1N1 VHH
Turning to B1, the “inhibition of GAL-7-induced apoptosis of Jurkat T cells” value in the experiment with human GAL-7 [1] was “did not inhibit; also recorded: No significant inhibition”. In addition, in the experiment with human GAL-7 [2], the “binding to human GAL-7 by MST” value was “does not bind; also recorded: no binding was detected”. The “binding to human GAL-8 by MST” value with human GAL-8 is recorded as “does not bind; also recorded: no binding was detected”. Also, the “binding to mouse GAL-7 by MST” value with mouse GAL-7 is on record as “does not bind; also recorded: no binding was detected”. In addition, the “binding affinity (Kd) for mouse recombinant galectin-1 by MST” value with mouse galectin-1 was “in the nanomolar range”. Further, the “binding in phage ELISA in the presence of GAL-1-Biotin” value in experiment [3] is reported as “strong binding; also recorded: strong positive hit”. The “affinity for galectin-1 relative to the affinity of lactose for galectin-1” value with human galectin-1 (MST, Red-NHS labeled human GAL-1 (5 nM) with G1N1 or alpha-lactose) is given as “approximately 200 fold”. For the same molecule, the “binding affinity (Kd) for human recombinant galectin-1 by MST” value with human galectin-1 (Red-NHS labeled G1N1 (2 nM), 20 mM Tris-HCl 150 mM NaCl 0.1% F127) was “in the nanomolar range”. Further, the “inhibition of galectin-1-induced apoptosis of Jurkat T cells” value in [4] is “strong and significant inhibition”. For the same molecule, the “specificity for galectin-1 by ELISA against galectin-2, -7, -13 and -16” value in [5] is “specificity of G1N1 for galectin-1 was confirmed”. Also, the “binding to human GAL-13 by MST” value in the experiment with human GAL-13 is on record as “does not bind; also recorded: no binding was detected”.

(Values after patent US20240228627A1, “GALECTIN-1-SPECIFIC MONOVALENT ANTIBODIES AND USES THEREOF” (INSTITUT NATIONAL DE LA RECHERCHE SCIENTIFIQUE, priority 2021, published 2024).)
